The labels stand for the following.
B1: TPR 5TU (parent)
chain: GGAUCUUCUCGAUCUAACAAAAAAGACAAAUCUGCCACAAAGCUUGAGAGCAUCUUCGGAUGCAGAGGCGGCAGCCUUCGGUGGCGCGAUAGCGCCAACGUUCUCAACUAUGACACGCAAAACGCGUGCUCCGUUGAAUGGAGUUUAUCAUG

84 variants from the RNAGym collection of RNA variant scans (doi:10.1073/pnas.2313332121) can be followed below.

Fewer inactive variants are shown than the library holds.

In this data set the parent is B1. Kind of data set: polymerase ribozyme fitness, log enrichment relative to wild type (log ratio); higher = more active; in vitro selection for triplet polymerase activity. Put shortly:
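Each subunit of a heterodimeric triplet polymerase ribozyme was mutagenized into a library by PCR, transcribed, and subjected to one round of in vitro selection, run in triplicate. Libraries were annealed with a biotinylated primer, the partner subunit and triplets, incubated frozen at −7 °C, and extended constructs were gel-excised, captured on streptavidin beads and recovered by RT-PCR. Input and output libraries were sequenced on Illumina, keeping genotypes with ≥10 input reads and ≥1 read per output. Fitness is log base 2 of genotype enrichment divided by wild-type enrichment, from inverse-variance-weighted replicate averages.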
U90C C99G A138G: the “polymerase ribozyme fitness (log ratio)” value was no more than -4.2.

Turning to A24C A98U, the “polymerase ribozyme fitness (log ratio)” value was no more than -4.2.

Take C85G G94U C118G: the “polymerase ribozyme fitness (log ratio)” value is -0.928.

Take G46C C54U C95U C116U C118G: the “polymerase ribozyme fitness (log ratio)” value was -2.25.

A30C C35U C54U C85U A121U: the “polymerase ribozyme fitness (log ratio)” value is no more than -4.2.

Consider U56A C95U A98U, for which the “polymerase ribozyme fitness (log ratio)” value is -1.6.

Turning to A22G U33G, the “polymerase ribozyme fitness (log ratio)” value is -3.24.

As for G83U G94C C116U, the “polymerase ribozyme fitness (log ratio)” value was -2.08.

As for A16C C18U C38U A39C A49U G67A U134G, the “polymerase ribozyme fitness (log ratio)” value was no more than -4.2.

Take C14G C51U C96U: the “polymerase ribozyme fitness (log ratio)” value was -3.1.

For the variant A19U C131A, the “polymerase ribozyme fitness (log ratio)” value was -1.75.

Consider C114U A137U, for which the “polymerase ribozyme fitness (log ratio)” value is -4.05.

Take A30U C69U G83A: the “polymerase ribozyme fitness (log ratio)” value was no more than -4.2.

As for G50U U102A A142U, the “polymerase ribozyme fitness (log ratio)” value is -2.57.

G84A G117U U139G U145C: the “polymerase ribozyme fitness (log ratio)” value was -0.527.

For G58C A122G A150C, the “polymerase ribozyme fitness (log ratio)” value is -3.46.

For the variant U31C A41G U53A U55A, the “polymerase ribozyme fitness (log ratio)” value is -0.0378.

In the case of C38U C69G C95U A122C, the “polymerase ribozyme fitness (log ratio)” value was -2.43.

Turning to A98U G136C, the “polymerase ribozyme fitness (log ratio)” value was -3.87.

As for C5G C27U C38G G81A U104C A115C, the “polymerase ribozyme fitness (log ratio)” value was no more than -4.2.

With G71C G92U, the “polymerase ribozyme fitness (log ratio)” value was -3.46.

As for G84U C116U G141C, the “polymerase ribozyme fitness (log ratio)” value is -4.04.

In the case of A52G C76U C93G, the “polymerase ribozyme fitness (log ratio)” value was -2.91.

In the case of A30U G71C C95A, the “polymerase ribozyme fitness (log ratio)” value is no more than -4.2.

Consider A49C A52C C96A U102G U127C U148A, for which the “polymerase ribozyme fitness (log ratio)” value is no more than -4.2.

For U9C A30G A66C G84A A150C, the “polymerase ribozyme fitness (log ratio)” value is no more than -4.2.

Consider A49G C114U U144A, for which the “polymerase ribozyme fitness (log ratio)” value was -4.06.

On to A3G C93A C108U C125G A142G U145G U146A, for which the “polymerase ribozyme fitness (log ratio)” value is no more than -4.2.

Regarding G48A C149U, the “polymerase ribozyme fitness (log ratio)” value was -1.46.

As for U4G A16G C54U G62C G71A U101G C105U A142G U144A, the “polymerase ribozyme fitness (log ratio)” value was no more than -4.2.

A23C: the “polymerase ribozyme fitness (log ratio)” value is -3.48.

For C14A A19U U56G G86U C116G C125U G133A G143C, the “polymerase ribozyme fitness (log ratio)” value is no more than -4.2.

Turning to A60G A89G, the “polymerase ribozyme fitness (log ratio)” value is -0.778.

C87U U101G A137C: the “polymerase ribozyme fitness (log ratio)” value is -3.73.

On to U53A C132U U146G, for which the “polymerase ribozyme fitness (log ratio)” value was -3.87.

C5G A28G A30C C36U A47U C57U C85A A91U C118U A120G C125G A142G: the “polymerase ribozyme fitness (log ratio)” value was no more than -4.2.

On to U53A C75U C85U C123U C125A, for which the “polymerase ribozyme fitness (log ratio)” value was -2.32.

As for U44A A47C, the “polymerase ribozyme fitness (log ratio)” value was no more than -4.2.

As for U90A A91C U102G U151G, the “polymerase ribozyme fitness (log ratio)” value is no more than -4.2.

A29G A49C G67A C114U U127G: the “polymerase ribozyme fitness (log ratio)” value was no more than -4.2.

With U31G A37U A49C C93A A106G G117C U145C U148A, the “polymerase ribozyme fitness (log ratio)” value was no more than -4.2.

Turning to C38A U56A, the “polymerase ribozyme fitness (log ratio)” value is -0.602.

In the case of U33G G67U C85G C96G A122G G140A, the “polymerase ribozyme fitness (log ratio)” value was no more than -4.2.

As to C14A G62U, the “polymerase ribozyme fitness (log ratio)” value was -1.57.

With A3C U6A C35A C95U U102C C103G G143U, the “polymerase ribozyme fitness (log ratio)” value was no more than -4.2.

For C8A U53A G81C C85G C108U A138G A147G A150U G152U, the “polymerase ribozyme fitness (log ratio)” value is -3.5.

For the variant U7G A22G C32U G59C U77G C114U U145A, the “polymerase ribozyme fitness (log ratio)” value was no more than -4.2.

As for A47G A91G A97G A98C U134G U139A, the “polymerase ribozyme fitness (log ratio)” value was no more than -4.2.

As to A60U C87G, the “polymerase ribozyme fitness (log ratio)” value is no more than -4.2.

For the variant C87G C105U U127C, the “polymerase ribozyme fitness (log ratio)” value is -4.1.

G11C C35U A52C A60G: the “polymerase ribozyme fitness (log ratio)” value was no more than -4.2.

As to A3C U13G A23U C87U A91U C96U, the “polymerase ribozyme fitness (log ratio)” value is no more than -4.2.

For A47C C85A C96U A97U, the “polymerase ribozyme fitness (log ratio)” value was no more than -4.2.

G58A A97U A107U: the “polymerase ribozyme fitness (log ratio)” value was -4.18.

On to C18G A20G G25C U33G G68U C96U A98G, for which the “polymerase ribozyme fitness (log ratio)” value was no more than -4.2.

Regarding U56C C87U, the “polymerase ribozyme fitness (log ratio)” value is -1.06.

As to A12U C35G G46A C57G A60C G92U C108G G143A A147G, the “polymerase ribozyme fitness (log ratio)” value is no more than -4.2.

Consider U7A A17C A142C, for which the “polymerase ribozyme fitness (log ratio)” value was -3.31.

For the variant U44A A49U C54U G59U G92A A106U, the “polymerase ribozyme fitness (log ratio)” value is no more than -4.2.

A49G G83A U144G A147U: the “polymerase ribozyme fitness (log ratio)” value was -1.87.

On to A3U G25U C27U C36A C87U C105G C118U G152C, for which the “polymerase ribozyme fitness (log ratio)” value was no more than -4.2.

Consider G34A C43A G92U C118U, for which the “polymerase ribozyme fitness (log ratio)” value was no more than -4.2.

Consider A12U C51U, for which the “polymerase ribozyme fitness (log ratio)” value is -2.53.

On to A39U U78A G83A G84C A115U U134C G136U, for which the “polymerase ribozyme fitness (log ratio)” value is no more than -4.2.

As for C35A G81U A97U A98U, the “polymerase ribozyme fitness (log ratio)” value is -3.76.

In the case of C27U A28C U44G A52C C93A, the “polymerase ribozyme fitness (log ratio)” value was -4.1.

Take G71U C116U: the “polymerase ribozyme fitness (log ratio)” value was -2.4.

Consider U13A A29U U44A C72G C96U A97U, for which the “polymerase ribozyme fitness (log ratio)” value is no more than -4.2.

A28U G80A A91U: the “polymerase ribozyme fitness (log ratio)” value is no more than -4.2.

Consider A24G C93U, for which the “polymerase ribozyme fitness (log ratio)” value was -3.49.

As for U44G A52C G92U G141A, the “polymerase ribozyme fitness (log ratio)” value was no more than -4.2.

On to A91G C118U A121U A122U G124A, for which the “polymerase ribozyme fitness (log ratio)” value is -3.56.

Turning to G83C C116A U146G, the “polymerase ribozyme fitness (log ratio)” value was -3.27.

Consider G50U C51U G58U C108G C123G, for which the “polymerase ribozyme fitness (log ratio)” value was no more than -4.2.

On to A3G G94C, for which the “polymerase ribozyme fitness (log ratio)” value is -1.07.

As to G83A A97U A98U A138U, the “polymerase ribozyme fitness (log ratio)” value was -4.07.

For A49U C54G C72A U82G A110U, the “polymerase ribozyme fitness (log ratio)” value was no more than -4.2.

U102C A120U G140C: the “polymerase ribozyme fitness (log ratio)” value was -3.56.

Turning to A19G A29U C95U A122G, the “polymerase ribozyme fitness (log ratio)” value is no more than -4.2.

For A20C U56A C75U, the “polymerase ribozyme fitness (log ratio)” value was -0.244.

For the variant A17U U101A U139G A142U, the “polymerase ribozyme fitness (log ratio)” value is -3.82.

As for A52U A73C G83C G84A G92U C123G, the “polymerase ribozyme fitness (log ratio)” value was no more than -4.2.

Turning to U55G C63U G81U C87G U102G C116G A150C, the “polymerase ribozyme fitness (log ratio)” value was no more than -4.2.

In the case of C85U A98C G124C, the “polymerase ribozyme fitness (log ratio)” value is -1.37.
